Common to all, as to details: both partners purified
The target in experiment [1] is T1, HSC70 (HSPA8), His-tagged (UniProt P11142 1-646).
T1 construct: HSC70 (HSPA8), the constitutive form of HSP70
The experiment in a line: ELISA; competition: 1 μM chaperone mixed with soluble peptide (titrated up to 100 μM, or fixed 100 μM in the screens) and bound to immobilised 1097-L; Kd of the competing peptide from linearised competition curves. In general terms: In an ELISA, binding on a coated surface is turned into a signal by an enzyme label.

Experiment [2] has as its target T2, DNAJA1 (DJA1), His-tagged (UniProt P31689 1-397).
T2 construct: DNAJA1, J-domain co-chaperone of HSC70
Described as above.

Experiment [3] addresses T3, DNAJA2 (DJA2), His-tagged (UniProt O60884 1-412).
T3 construct: DNAJA2, J-domain co-chaperone of HSC70
The experiment is described as above.

Experiment [4] deals with T1, HSC70 (HSPA8), His-tagged. The experiment is described as follows: ELISA; titration of increasing concentrations of chaperone on immobilised biotinylated peptide; HSC70 with ATP; apparent Kd from linearised binding curves.
The target in experiment [5] is T2, DNAJA1 (DJA1), His-tagged. The description is as above.
Experiment [6] addresses T3, DNAJA2 (DJA2), His-tagged. The experiment is described as above.

Ends that are not written are not given here. * marks the point of attachment. Biotin = O=C1N[C@H]2[C@H](CS[C@H]2CCCCC(=O)*)N1

T3 sequence (O60884 whole entry): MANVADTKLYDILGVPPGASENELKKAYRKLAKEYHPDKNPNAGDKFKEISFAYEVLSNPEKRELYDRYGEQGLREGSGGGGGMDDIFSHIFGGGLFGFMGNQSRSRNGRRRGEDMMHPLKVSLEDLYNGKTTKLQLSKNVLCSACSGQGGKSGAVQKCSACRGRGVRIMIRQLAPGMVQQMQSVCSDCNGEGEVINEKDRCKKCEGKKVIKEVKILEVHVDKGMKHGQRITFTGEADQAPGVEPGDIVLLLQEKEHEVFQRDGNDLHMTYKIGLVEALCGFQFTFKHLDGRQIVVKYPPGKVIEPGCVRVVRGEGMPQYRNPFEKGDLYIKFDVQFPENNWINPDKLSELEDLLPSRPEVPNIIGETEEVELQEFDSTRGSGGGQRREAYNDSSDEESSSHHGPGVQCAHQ
T1 sequence (P11142 whole entry): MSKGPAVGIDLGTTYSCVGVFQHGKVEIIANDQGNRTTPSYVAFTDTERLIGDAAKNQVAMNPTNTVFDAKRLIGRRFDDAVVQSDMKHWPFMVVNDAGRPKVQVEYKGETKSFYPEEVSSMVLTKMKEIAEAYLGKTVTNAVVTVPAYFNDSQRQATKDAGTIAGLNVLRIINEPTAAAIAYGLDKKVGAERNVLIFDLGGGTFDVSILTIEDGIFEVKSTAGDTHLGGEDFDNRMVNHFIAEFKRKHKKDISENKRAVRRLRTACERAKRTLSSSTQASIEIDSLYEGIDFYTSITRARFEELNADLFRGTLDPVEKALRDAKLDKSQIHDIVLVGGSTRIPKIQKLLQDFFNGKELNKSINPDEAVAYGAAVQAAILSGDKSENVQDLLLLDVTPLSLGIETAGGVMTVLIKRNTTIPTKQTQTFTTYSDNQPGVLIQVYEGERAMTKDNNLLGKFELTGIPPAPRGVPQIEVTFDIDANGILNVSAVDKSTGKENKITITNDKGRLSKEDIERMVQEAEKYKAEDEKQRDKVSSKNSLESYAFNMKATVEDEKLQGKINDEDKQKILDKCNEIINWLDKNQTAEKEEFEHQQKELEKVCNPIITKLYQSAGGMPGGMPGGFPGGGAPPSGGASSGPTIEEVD

B1: CFTR peptide 1403-L, soluble unmodified (peptide, UniProt P13569 1396-1410, looked up)
peptide: TVILCEHRIEAMLEC
notes: CFTR, 15-mer numbered by its middle residue 1403, from NBD2; source: synthetic peptide (Lifetein, unmodified, >85% purity)
For the molecule B1, the Kd was determined as 2660 nM in experiment [1], 9.15 µM in experiment [2] and 0.994 µM in experiment [3].

B2: CFTR peptide 1393-L, soluble unmodified (peptide, UniProt P13569 1386-1400, looked up)
peptide: RTLKQAFADCTVILC
notes: CFTR, 15-mer numbered by its middle residue 1393, from NBD2; source: synthetic peptide (Lifetein, unmodified, >85% purity)
Turning to B2, the Kd in experiment [1] was 1040 nM; in experiment [2], 15.7 µM; in experiment [3] it was 1.49 µM.

B3: CFTR peptide 1100-S (peptide, UniProt P13569 1096-1104, looked up)
peptide: LRWFQMRIE
notes: CFTR, 9-mer numbered by its central residue 1100, L4 side of the NT-L4 interface; source: synthetic peptide (Lifetein, unmodified, >85% purity)
In turn, B3 had a Kd in experiment [3] of 8.33 µM.

B4: CFTR peptide 618-S (peptide, UniProt P13569 614-622, looked up)
peptide: DKILILHEG
notes: source: synthetic peptide (Lifetein, unmodified, >85% purity)
In experiment [1], B4 showed a Kd of 3730 nM.

B5: CFTR peptide 1295-S (peptide, UniProt P13569 1291-1299, looked up)
peptide: QKVFIFSGT
notes: as for B4
Molecule B5 came in with a Kd in experiment [1] of 1260 nM.

B6: CFTR peptide 1393-L, biotinylated (library form) (peptide)
peptide: Biotin-GSGSRTLKQAFADCTVILC
modifications: cysteine pairing not given here
notes: linker; CFTR, 15-mer numbered by its middle residue 1393, from NBD2; source: synthetic peptide (Mimotopes, PepSet purity)
Turning to B6, the Kd is 9.06 µM in experiment [4], 1500 nM in experiment [5] and 1120 nM in experiment [6].

B7: CFTR peptide 1403-L, biotinylated (library form) (peptide)
peptide: Biotin-GSGSTVILCEHRIEAMLEC
modifications: cysteine pairing not given here
notes: linker; CFTR, 15-mer numbered by its middle residue 1403, from NBD2; source: synthetic peptide (Mimotopes, PepSet purity)
On to B7, for which the figures for the Kd in experiment [4], in experiment [5] and in experiment [6] were 11.1 µM, 1490 nM and 1190 nM, respectively.

B8: CFTR peptide 17-S (peptide, UniProt P13569 13-21, looked up)
peptide: SKLFFSWTR
notes: CFTR, 9-mer numbered by its central residue 17, from the NT; source: synthetic peptide (Lifetein, unmodified, >85% purity)
As for B8, in experiment [1], the Kd came out at 1760 nM.

B9: CFTR peptide 469-S (peptide, UniProt P13569 465-473, looked up)
peptide: TSLLMVIMG
notes: as for B4
Consider B9, for which the results for the Kd in experiment [1] and in experiment [3] were 1560 nM and 4.82 µM, respectively.

B10: CFTR peptide 1293-L, soluble unmodified (peptide, UniProt P13569 1286-1300, looked up)
peptide: FGVIPQKVFIFSGTF
notes: as for B4
B10 displayed a Kd in experiment [1] of 2020 nM.

B11: CFTR peptide 1398-S (peptide, UniProt P13569 1394-1402, looked up)
peptide: DCTVILCEH
notes: as for B4
On to B11, for which the Kd stood at 900 nM in experiment [1], 18.3 µM in experiment [2] and 4.45 µM in experiment [3].

The values above are taken from article PMC7060200, “Selective Binding of HSC70 and its Co-Chaperones to Structural Hotspots on CFTR” (Scientific Reports, 2020).
